Assay [1] concerns the target T1, human CLDN6, endogenously expressed on cancer cell lines (human, UniProt P56747 1-220).
T1 construct: also called Endogenous CLDN6+; CLDN6 on ARK2, OVCA429, UMUC4 cells
T1 sequence: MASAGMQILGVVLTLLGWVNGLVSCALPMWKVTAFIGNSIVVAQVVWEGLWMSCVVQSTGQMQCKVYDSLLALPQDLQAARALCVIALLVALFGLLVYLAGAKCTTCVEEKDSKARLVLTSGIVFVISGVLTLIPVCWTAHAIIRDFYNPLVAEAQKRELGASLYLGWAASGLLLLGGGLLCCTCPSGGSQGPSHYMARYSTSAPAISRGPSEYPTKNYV
The assay is described as follows: FACS dose curve, labelled mAb, OVCA429 cells.

Assay [2] deals with T1, human CLDN6, endogenously expressed on …. The assay is described as follows: FACS dose curve, labelled mAb, ARK2 cells.
Assay [3] shares this target. The assay is described as follows: FACS, ARK2 cells, 0.3 ug Ab. In general terms: In flow cytometry, cells or beads pass a laser one at a time.
The target in assay [4] is T2, mouse CLDN6 fused to GFP, expressed on engineered HEK293T cells (mouse, UniProt Q9Z262 1-219).
T2 construct: whole, on cells; also called HEK293T-CLDN6-mGFP Artificial CLDN6+ (mouse); murine CLDN6; not shown: GFP tag
T2 sequence (looked up): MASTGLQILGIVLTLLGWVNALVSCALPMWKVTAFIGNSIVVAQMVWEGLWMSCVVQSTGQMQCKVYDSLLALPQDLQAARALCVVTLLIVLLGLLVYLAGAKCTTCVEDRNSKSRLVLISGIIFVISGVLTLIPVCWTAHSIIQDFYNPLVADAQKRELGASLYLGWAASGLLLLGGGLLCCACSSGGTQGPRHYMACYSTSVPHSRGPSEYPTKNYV
The assay is described as follows: FACS, 293T clone with mouse CLDN6.

The target in assay [5] is T1, human CLDN6, endogenously expressed on …. The assay is described as follows: FACS, ARK2 cells, 1.5 ug Ab.
Assay [6] shares this target. Nature of the assay: flow cytometry on UMUC4 cells (Positive Cell Line), anti-human IgG Fc secondary antibody.
Assay [7] concerns the target T2, mouse CLDN6 fused to GFP, expressed on …. The assay is described as follows: FACS dose curve, labelled mAb, HEK293T-CLDN6-mGFP (mouse) cells.

Numbering of substitutions follows the chain as printed.

B1: AB13 (antibody, V domains shown)
VH: QVQLQQSGAELVRPGTSVKVSCKASGYAFSNYLIEWVKQRPGQGLEWIGVINPGSGGTNYNEKFKGKATMTADKSSSTAYMHLSNLTSEDSVVYFCARSYFGRSYPYTMDYWGQGTSVTVSS
VL: EIVLTQSPTTMAASPGEKITITCSASSSISSNYLHWYQQKPGFSPKLLIYRTSNLASGVPARFSGSGSGTSYSLTIGTMEAEDVATYYCQQGSSIPLTFGAGTKLELK
notes: Full-length IgG (ExpiCHO)
As usually defined, the EC50 is the concentration that produces a half-maximal response. A low value points to an effect from little substance. As to B1, the EC50 was 2290 nM in assay [1] and 1150 nM in assay [2].

B2: AB3-7 (antibody, V domains shown)
VH: EVQLLESGGGLVQPGGSMRLSCAASGFTFSNYWMNWVRQAPGKGLEWVAQIRLKSDNYATHYADSVKGRFTISRDDSKNTVYLQMNSLRAEDTGVYYCNDGPPSGSWGQGTLLTVSS
VL: DIQMTQSPSSLSASVGDRVTITCRISENIYSYLAWYQQKPGKAPKLLVYNAKILVEGVPSRFSGSGSGTDFTLTISSLQPEDFGTYYCQHHYTVPWTFGQGTKLEIK
notes: Humanized; also called humanized AB3-7; AB23
As to B2, the FACS signal in assay [3] came to 36000; in assay [4], 56100; in assay [5] it was 90400. Besides, in assay [6], the “flow cytometry signal at 0.1µg Ab/Sample” value worked out at 8820. Besides, the “flow cytometry signal at 1µg Ab/Sample” value in assay [6] was determined as 27300.

B3: AB14 (antibody, V domains shown)
VH: QVQLQQSGPELVRPGVSVKISCKGSGYTFTDYAMHWVKQSHAKSLEWIGVISTYSGNTNYNQKFQDKATMTVDKSSSTAYMALARLTSDDSAIYYCARRGDYSLYAMDYWGQGTSVTVSS
VL: DIVLTQSPASLAVSLGQRATISCKASQSVDYDGDNYVNWYQQKVGQPPKLLISAASNLESGIPARFSGSGSGTDFTLNIHPVEEEDAATYYCQQSNEDPFTFGSGTKLEIK
notes: Full-length IgG (ExpiCHO)
For the molecule B3, the 50% effective concentration (EC50) in assay [1] was 1660 nM; in assay [2], 1300 nM.

B4: AB2 (antibody, V domains shown)
VH: EVKLEESGGGLVQPGGSMKLSCVASGFTFSDYWMNWVRQSPEKGLEWVAQIRLKSDNYATHYAESVKGRFTISRDDSKRSVYLQMNNLRAEDTGTYYCNDGPPSGCWGQGTTLIVSS
VL: DIQMTQSPASLSASVGETVTITCRISENIYSYLAWYQQKQGKSPQLLVYNAKILVEGVPSRFSGSGSGTQFSLKINSLQPEDFGNYYCQHHYTVPWTFGGGTKLEIK
notes: Full-length IgG (ExpiCHO)
Regarding B4, the half-maximal effective concentration (EC50) was 912 nM in assay [1], 1360 nM in assay [2] and no less than 5000 nM in assay [7].

B5: AB3 (antibody, V domains shown)
VH: B4 VH with D31N
VL: B4 VL
notes: Full-length IgG (ExpiCHO)
On to B5, for which the EC50 came to 1100 nM in assay [1], 1650 nM in assay [2] and 2490 nM in assay [7].

B6: AB9 (antibody, V domains shown)
VH: EVQLQQSGPELVKPGASVKMSCKASGYRFTDYNMHWVKQSHGKSLEWIGYINPNNGGTNYNQNFKGKATLTVNKSSSTAYMELRSLTSEDSAAYYCARDYLYFFDCWGQGTTLTVSS
VL: DIQMTQSPASQSASLGESVTITCLASQTIGTWLAWYQQKPGKSPQLLIYAAASLADGVPSRFSGSGSGTRFSFKISSLQAEDFVSYYCQQLYSIPRTFGGGTKLEIK
notes: Full-length IgG (ExpiCHO)
Consider B6, for which the EC50 in assay [1] stood at 1160 nM; in assay [2], 1140 nM.

B7: AB18 (antibody, V domains shown)
VH: QVQLKQSGPELEKPGASVKISCKASGYSFTGYNMNWVKQSNGKSLEWIGNIDPYYGGSTYNQKFTGKATLTVDKSSSTAYMQLKSLTSEDSAVYYCARERSGYVFSAMDYWGQGTSVTVSS
VL: NIMMTQSPSSLAVSAGEKVTMSCKSSQSVLFSSNQKNYLAWYQQKPGQSPRLLIYWASTRESGVPDRFTGSGSGTDFTLTISNVQAEDLAVYYCHQYLSSRTFGAGTKLELK
notes: Full-length IgG (ExpiCHO)
With B7, the EC50 in assay [1] is 2440 nM; in assay [2], 1350 nM.

The record behind these values is patent US20220177583A1 (University of California, published 2022).
